Measurements taken from US20230257470A1 (published 2023).

Assays:
[1] = target: T1, human FcγRIIIa(F) (human, UniProt P08637 17-208, limits assumed); assay: SPR, antibody captured, FcγR as analyte, capture-corrected binding amount
T1 construct: the assay used allotype F; also called FcgRIIIaF; FcγRIIIa allotype F158
Experimental: (§1) Interaction between each modified antibody and Fcγ receptor prepared in the manner described above was analyzed using the BIACORE™ T100 surface plasmon resonance system (GE Healthcare), BIACORE™ T200 surface plasmon resonance system (GE Healthcare), BIACORE™ A100 surface plasmon resonance system or BIACORE™ 4000 surface plasmon resonance system. HBS-EP+(GE Healthcare) was used for the running buffer, and measurements were carried out at 25° C. The chips used were chips in which antigen peptides, Protein A (Thermo Scientific), Protein A/G (Thermo Scientific) or Protein L (ACTIGEN® protein (Alltech or BioVision) were immobilized on the Series S Sensor Chip CM5 (GE Healthcare) or Series S Sensor Chip CM4 (GE Healthcare) by amine coupling, or chips in which preliminarily biotinylated antigen peptides were allowed to interact and then immobilized on the Series S Sensor Chip SA (certified) (GE Healthcare). The target antibodies were captured on these sensor chips, Fcγ receptor diluted with the running buffer was allowed to interact, followed by measurement of the amount of bound antibody. The amounts bound were compared between antibodies. However, since the amount of Fcγ receptor bound depends on the amount of captured antibody, the values used for comparison were first corrected by dividing the amount of Fcγ receptor bound by the captured amount of each antibody. Through reaction with 10 mM glycine-HCl at pH 1.5, the sensor chips were regenerated by washing off antibody captured on the sensor chips and used repeatedly.
(§2) Binding strength was evaluated according to the following method based on the results of analyzing the interaction with each FcγR. […] That value was then further multiplied by 100, and the resulting value was used as an indicator of relative binding activity to each FcγR.

[2] = target: T2, human FcγRIIb (human, UniProt P31994 43-217, limits assumed); assay: SPR, captured antibody, FcγR as analyte
T2 construct: Soluble analyte in SPR; also called FcgRIIb; FcγIIB
T2 sequence: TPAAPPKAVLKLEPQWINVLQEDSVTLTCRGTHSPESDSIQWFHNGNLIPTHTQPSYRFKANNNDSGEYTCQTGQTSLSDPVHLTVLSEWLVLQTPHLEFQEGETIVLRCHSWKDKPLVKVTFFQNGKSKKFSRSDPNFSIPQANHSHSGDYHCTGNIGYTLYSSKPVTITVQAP
Experimental: as §1, §2

[3] = target: T3, human FcγRIa (human, UniProt P12314 16-292, limits assumed); assay: SPR (Biacore T100), ratio of the KD values of Table 24
T3 construct: Soluble analyte in SPR; also called hFcgRIa; FcgRIa
T3 sequence (P12314 16-292 limits assumed): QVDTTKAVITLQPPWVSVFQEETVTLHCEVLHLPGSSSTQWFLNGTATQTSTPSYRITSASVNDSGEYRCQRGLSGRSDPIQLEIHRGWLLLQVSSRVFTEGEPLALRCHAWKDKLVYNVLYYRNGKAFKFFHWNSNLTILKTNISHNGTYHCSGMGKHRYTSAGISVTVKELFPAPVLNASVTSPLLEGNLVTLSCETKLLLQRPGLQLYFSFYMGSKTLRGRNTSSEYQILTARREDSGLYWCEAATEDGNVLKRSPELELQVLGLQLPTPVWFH
Experimental: (§3) Next, interaction between these antibodies and FcγR was analyzed kinetically using the BIACORE™ T100 (GE Healthcare). The interaction was measured at a temperature of 25° C. using HBS-EP+ (GE Healthcare) for the running buffer. The Series S Sensor Chip CM5 (GE Healthcare) was used after immobilizing Protein A by amine coupling. […] Antibody captured on the chip was washed by allowing 10 mM glycine-HCl (pH 1.5) to react following measurement. The chip regenerated in this manner was used repeatedly. The dissociation constant KD (mol/L) was calculated from the association rate constant ka (L/mol/s) and dissociation rate constant kd (1/s) as calculated by global-fitting the measurement results with a 1:1 Langmuir binding model using the BIACORE™ Evaluation Software.

[4] = target: T4, human FcγRIIa(R) (allotype R131) (human, UniProt P12318 36-217); assay: as above
T4 construct: Soluble analyte in SPR; also called hFcgRIIa(R); FcgRIIaR
T4 chain: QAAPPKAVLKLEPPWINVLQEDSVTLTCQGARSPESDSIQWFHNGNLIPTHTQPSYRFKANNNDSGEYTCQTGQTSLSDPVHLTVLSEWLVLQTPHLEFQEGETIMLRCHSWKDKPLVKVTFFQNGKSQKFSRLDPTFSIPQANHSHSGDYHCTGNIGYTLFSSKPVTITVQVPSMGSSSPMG
Experimental: as §3

[5] = target: T5, human FcγRIIb (human, UniProt P31994 43-217, limits assumed); assay: as above
T5 construct: Soluble analyte in SPR; also called hFcgRIIb; FcgRIIb
T5 sequence: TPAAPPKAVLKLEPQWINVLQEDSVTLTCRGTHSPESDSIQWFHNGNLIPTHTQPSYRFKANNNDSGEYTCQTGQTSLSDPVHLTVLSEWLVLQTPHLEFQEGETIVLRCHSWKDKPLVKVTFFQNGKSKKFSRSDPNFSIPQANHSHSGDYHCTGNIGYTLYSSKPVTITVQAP
Experimental: as §3

[6] = target: T6, human FcγRIIa(H) (allotype H131) (human, UniProt P12318 36-217); assay: as above
T6 construct: Soluble analyte in SPR; also called hFcgRIIa(H); FcgRIIaH
T6 sequence: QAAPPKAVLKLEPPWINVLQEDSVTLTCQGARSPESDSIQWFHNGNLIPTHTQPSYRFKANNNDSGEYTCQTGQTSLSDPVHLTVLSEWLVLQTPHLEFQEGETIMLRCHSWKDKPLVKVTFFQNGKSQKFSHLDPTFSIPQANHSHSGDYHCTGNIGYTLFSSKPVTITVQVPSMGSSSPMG
Experimental: as §3

[7] = target: T7, human FcγRIIa type R (human, UniProt P12318 36-217); assay: SPR (Biacore), antibody captured on Protein A chip, FcγR as analyte, 25 C, method of Example 14
T7 construct: also called FcγRIIaR; FcγRIIa(R)
T7 chain: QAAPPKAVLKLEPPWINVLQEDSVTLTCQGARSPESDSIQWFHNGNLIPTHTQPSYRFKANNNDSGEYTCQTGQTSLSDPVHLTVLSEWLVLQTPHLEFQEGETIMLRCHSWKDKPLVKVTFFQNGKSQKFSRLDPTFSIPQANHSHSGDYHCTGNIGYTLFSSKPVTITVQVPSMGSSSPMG
Experimental: as §3
(§4) Furthermore, KD(IIaR)/KD(IIb) and KD(IIaH)/KD(IIb) in the table respectively represent the value obtained by dividing the KD value of each variant for FcγRIIaR by the KD value of each variant for FcγRIIb, and the value obtained by dividing the KD value of each variant for FcγRIIaH by the KD value of each variant for FcγRIIb.

[8] = target: T8, human FcγRIIb (human, UniProt P31994 43-217, limits assumed); assay: as above
T8 construct: Whole entry (AAI46679.1); also called FcγIIB; FcgRIIb
T8 sequence: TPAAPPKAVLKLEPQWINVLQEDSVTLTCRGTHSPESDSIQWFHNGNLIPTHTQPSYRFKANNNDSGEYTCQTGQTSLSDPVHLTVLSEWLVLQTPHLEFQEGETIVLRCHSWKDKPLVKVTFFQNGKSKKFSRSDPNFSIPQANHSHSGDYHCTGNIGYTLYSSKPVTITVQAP
Experimental: as §3, §4

[9] = target: T8, human FcγRIIb; assay: ratio of SPR KD values: KD for FcγRIIaR divided by KD for FcγRIIb
Experimental: as §3, §4

T1 sequence (P08637 other isoform, or with tags, fused parts or gaps limits assumed): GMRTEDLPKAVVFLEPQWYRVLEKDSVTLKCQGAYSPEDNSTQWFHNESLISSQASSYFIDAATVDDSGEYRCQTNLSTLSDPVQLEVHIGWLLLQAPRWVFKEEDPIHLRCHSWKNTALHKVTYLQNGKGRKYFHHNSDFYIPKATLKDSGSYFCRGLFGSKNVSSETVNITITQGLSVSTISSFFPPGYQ

B1: GpH7-B3 N325F/GpL16-k0 (antibody, human IgG1)
heavy: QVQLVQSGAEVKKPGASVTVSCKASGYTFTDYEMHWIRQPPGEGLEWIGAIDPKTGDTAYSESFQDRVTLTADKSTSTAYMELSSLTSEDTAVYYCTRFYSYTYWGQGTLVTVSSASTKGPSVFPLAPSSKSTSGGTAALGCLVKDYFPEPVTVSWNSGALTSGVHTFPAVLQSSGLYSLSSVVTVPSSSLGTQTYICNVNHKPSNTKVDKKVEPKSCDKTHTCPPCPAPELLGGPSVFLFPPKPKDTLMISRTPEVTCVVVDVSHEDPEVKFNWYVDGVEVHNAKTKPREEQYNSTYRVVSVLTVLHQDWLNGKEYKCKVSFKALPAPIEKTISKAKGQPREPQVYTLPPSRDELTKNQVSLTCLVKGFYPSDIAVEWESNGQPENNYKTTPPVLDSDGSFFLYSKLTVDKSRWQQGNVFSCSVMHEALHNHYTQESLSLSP
light: DIVMTQSPLSLPVTPGEPASISCQASESLVHSNRNTYLHWYLQKPGQSPQLLIYKVSNRFSGVPDRFSGSGSGTDFTLKISRVEAEDVGVYYCSQNTHVPPTFGQGTKVEIE
notes: Anti-glypican-3 human IgG1 with B3 constant region (G1d with K439E); also called B3 variant; copies: 2 + 2
[1]
  relative binding activity: 1 % of GpH7-B3/GpL16-k0

B2: GpH7-B3 Y300R/GpL16-k0 (antibody, human IgG1)
heavy: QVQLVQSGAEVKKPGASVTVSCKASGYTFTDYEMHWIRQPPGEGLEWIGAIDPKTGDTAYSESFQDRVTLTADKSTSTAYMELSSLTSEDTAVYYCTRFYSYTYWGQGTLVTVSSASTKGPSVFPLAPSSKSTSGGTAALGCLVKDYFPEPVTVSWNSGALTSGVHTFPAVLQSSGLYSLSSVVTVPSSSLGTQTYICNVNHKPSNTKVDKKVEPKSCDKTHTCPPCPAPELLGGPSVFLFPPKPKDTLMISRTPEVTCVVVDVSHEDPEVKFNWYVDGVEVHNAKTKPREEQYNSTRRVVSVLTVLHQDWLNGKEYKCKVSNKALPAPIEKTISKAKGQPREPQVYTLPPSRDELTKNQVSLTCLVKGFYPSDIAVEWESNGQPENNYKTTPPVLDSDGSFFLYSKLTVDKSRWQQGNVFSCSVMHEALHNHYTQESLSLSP
light: DIVMTQSPLSLPVTPGEPASISCQASESLVHSNRNTYLHWYLQKPGQSPQLLIYKVSNRFSGVPDRFSGSGSGTDFTLKISRVEAEDVGVYYCSQNTHVPPTFGQGTKVEIE
notes: as for B1
[1]
  relative binding activity: 12 % of GpH7-B3/GpL16-k0

B3: GpH7-B3 variant G237R/GpL16-k0 (antibody, human IgG1)
heavy: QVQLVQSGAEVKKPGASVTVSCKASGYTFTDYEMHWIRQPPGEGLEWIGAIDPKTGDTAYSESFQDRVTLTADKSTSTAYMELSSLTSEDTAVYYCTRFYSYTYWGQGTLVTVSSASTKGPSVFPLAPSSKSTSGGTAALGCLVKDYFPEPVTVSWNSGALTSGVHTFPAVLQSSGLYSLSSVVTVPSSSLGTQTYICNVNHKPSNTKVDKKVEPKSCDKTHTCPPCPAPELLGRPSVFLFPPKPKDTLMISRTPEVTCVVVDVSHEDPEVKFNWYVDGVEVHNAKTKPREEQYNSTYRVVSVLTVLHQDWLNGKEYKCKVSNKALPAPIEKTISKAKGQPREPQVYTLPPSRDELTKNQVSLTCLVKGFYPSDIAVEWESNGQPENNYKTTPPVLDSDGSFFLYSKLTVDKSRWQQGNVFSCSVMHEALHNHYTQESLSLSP
light: DIVMTQSPLSLPVTPGEPASISCQASESLVHSNRNTYLHWYLQKPGQSPQLLIYKVSNRFSGVPDRFSGSGSGTDFTLKISRVEAEDVGVYYCSQNTHVPPTFGQGTKVEIE
notes: copies: 2 + 2
[2]
  relative binding activity: 1 % of GpH7-B3/GpL16-k0

B4: GpH7-B3 variant D265M/GpL16-k0 (antibody, human IgG1)
heavy: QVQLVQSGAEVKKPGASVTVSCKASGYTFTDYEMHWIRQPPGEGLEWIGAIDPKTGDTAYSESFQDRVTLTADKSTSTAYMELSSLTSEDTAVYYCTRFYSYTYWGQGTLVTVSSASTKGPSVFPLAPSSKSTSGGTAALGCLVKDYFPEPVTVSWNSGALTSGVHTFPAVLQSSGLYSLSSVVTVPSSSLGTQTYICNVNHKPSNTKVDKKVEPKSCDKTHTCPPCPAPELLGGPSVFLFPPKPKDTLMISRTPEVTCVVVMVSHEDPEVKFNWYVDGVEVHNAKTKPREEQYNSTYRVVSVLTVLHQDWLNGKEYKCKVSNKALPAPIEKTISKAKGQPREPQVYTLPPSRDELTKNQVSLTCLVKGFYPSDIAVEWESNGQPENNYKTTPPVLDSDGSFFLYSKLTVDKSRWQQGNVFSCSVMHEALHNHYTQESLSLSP
light: DIVMTQSPLSLPVTPGEPASISCQASESLVHSNRNTYLHWYLQKPGQSPQLLIYKVSNRFSGVPDRFSGSGSGTDFTLKISRVEAEDVGVYYCSQNTHVPPTFGQGTKVEIE
notes: copies: 2 + 2
[2]
  relative binding activity: 2 % of GpH7-B3/GpL16-k0

B5: IgG1-v1 (antibody containing IL6R-G1d_v1 as H chain and IL6R-L as L chain) (antibody)
heavy: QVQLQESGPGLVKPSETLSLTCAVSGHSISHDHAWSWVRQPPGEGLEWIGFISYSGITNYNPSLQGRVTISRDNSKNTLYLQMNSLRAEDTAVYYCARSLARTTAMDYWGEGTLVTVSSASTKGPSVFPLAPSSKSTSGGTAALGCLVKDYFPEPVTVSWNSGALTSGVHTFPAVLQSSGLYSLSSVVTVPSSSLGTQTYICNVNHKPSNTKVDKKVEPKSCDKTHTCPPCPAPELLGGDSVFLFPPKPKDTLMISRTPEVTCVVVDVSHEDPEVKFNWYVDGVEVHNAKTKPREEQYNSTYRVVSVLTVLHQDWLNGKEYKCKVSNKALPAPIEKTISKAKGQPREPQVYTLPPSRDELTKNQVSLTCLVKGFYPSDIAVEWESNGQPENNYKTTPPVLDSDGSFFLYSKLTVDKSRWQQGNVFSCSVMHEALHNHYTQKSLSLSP
light: DIQMTQSPSSLSASVGDRVTITCRASQDISSYLNWYQQKPGKAPKLLIYYTSRLHSGVPSRFSGSGSGTDFTFTISSLQPEDIATYYCQQGNTLPYTFGQGTKVEIK
notes: IL6R-G1d with P238D (EU numbering); also called P238D
[3]
  relative KD (KD of IgG1 / KD of the variant): 0.047 fold
[4]
  relative KD (KD of IgG1 / KD of the variant): 0.1 fold
[5]
  relative KD (KD of IgG1 / KD of the variant): 4.8 fold
[6]
  relative KD (KD of IgG1 / KD of the variant): 0.014 fold

B6: IL6R-B3/IL6R-L (antibody, human IgG1)
heavy: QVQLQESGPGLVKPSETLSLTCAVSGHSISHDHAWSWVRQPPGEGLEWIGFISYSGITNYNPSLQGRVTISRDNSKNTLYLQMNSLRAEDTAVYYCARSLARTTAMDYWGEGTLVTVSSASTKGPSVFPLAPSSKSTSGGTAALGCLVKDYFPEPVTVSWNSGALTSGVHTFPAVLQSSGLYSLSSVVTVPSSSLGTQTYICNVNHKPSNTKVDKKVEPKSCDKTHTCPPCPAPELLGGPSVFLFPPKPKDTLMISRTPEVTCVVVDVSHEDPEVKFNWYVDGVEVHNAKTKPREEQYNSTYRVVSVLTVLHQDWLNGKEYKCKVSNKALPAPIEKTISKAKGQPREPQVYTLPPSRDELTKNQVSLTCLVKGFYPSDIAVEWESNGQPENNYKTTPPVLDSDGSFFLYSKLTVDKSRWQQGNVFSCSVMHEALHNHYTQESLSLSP
light: DIQMTQSPSSLSASVGDRVTITCRASQDISSYLNWYQQKPGKAPKLLIYYTSRLHSGVPSRFSGSGSGTDFTFTISSLQPEDIATYYCQQGNTLPYTFGQGTKVEIK
notes: IL6R-G1d with K439E (EU numbering); also called parent polypeptide
[7]
  Kd: 11 µM

B7: IL6R-BF648/IL6R-L (antibody, human IgG1, name in EU numbering)
heavy: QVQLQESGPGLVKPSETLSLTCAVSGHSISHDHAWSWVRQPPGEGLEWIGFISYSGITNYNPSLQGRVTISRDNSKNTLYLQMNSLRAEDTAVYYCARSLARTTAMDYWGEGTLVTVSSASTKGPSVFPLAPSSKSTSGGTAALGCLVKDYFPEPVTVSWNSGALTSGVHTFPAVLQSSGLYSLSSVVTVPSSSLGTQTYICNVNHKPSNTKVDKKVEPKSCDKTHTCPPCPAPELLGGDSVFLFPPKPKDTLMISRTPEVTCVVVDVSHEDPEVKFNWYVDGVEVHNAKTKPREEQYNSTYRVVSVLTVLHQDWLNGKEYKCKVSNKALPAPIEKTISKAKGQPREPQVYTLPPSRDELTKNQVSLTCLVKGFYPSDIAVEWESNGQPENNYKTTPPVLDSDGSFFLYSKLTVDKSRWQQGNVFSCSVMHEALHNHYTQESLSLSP
light: DIQMTQSPSSLSASVGDRVTITCRASQDISSYLNWYQQKPGKAPKLLIYYTSRLHSGVPSRFSGSGSGTDFTFTISSLQPEDIATYYCQQGNTLPYTFGQGTKVEIK
notes: Alteration introduced into IL6R-B3; positions in EU numbering
[8]
  Kd: 12 µM

B8: IL6R-BP146/IL6R-L (antibody, human IgG1, name in EU numbering)
heavy: QVQLQESGPGLVKPSETLSLTCAVSGHSISHDHAWSWVRQPPGEGLEWIGFISYSGITNYNPSLQGRVTISRDNSKNTLYLQMNSLRAEDTAVYYCARSLARTTAMDYWGEGTLVTVSSASTKGPSVFPLAPSSKSTSGGTAALGCLVKDYFPEPVTVSWNSGALTSGVHTFPAVLQSSGLYSLSSVVTVPSSSLGTQTYICNVNHKPSNTKVDKKVEPKSCDKTHTCPPCPAPEYLGDDSVFLFPPKPKDTLMISRTPEVTCVVVDVSHEDPEVKFNWYVDGVEVHNAKTKPREEQYNSTYRVVSVLTVLHQDWLNGKEYKCKVSNAALPAPIEKTISKAKGQPREPQVYTLPPSRDELTKNQVSLTCLVKGFYPSDIAVEWESNGQPENNYKTTPPVLDSDGSFFLYSKLTVDKSRWQQGNVFSCSVMHEALHNHYTQESLSLSP
light: DIQMTQSPSSLSASVGDRVTITCRASQDISSYLNWYQQKPGKAPKLLIYYTSRLHSGVPSRFSGSGSGTDFTFTISSLQPEDIATYYCQQGNTLPYTFGQGTKVEIK
notes: Alterations introduced into IL6R-B3 (EU numbering)
[7]
  Kd: 21 µM

B9: IL6R-2B261/IL6R-L (antibody, human IgG1, name in EU numbering)
heavy: QVQLQESGPGLVKPSETLSLTCAVSGHSISHDHAWSWVRQPPGEGLEWIGFISYSGITNYNPSLQGRVTISRDNSKNTLYLQMNSLRAEDTAVYYCARSLARTTAMDYWGEGTLVTVSSASTKGPSVFPLAPSSKSTSGGTAALGCLVKDYFPEPVTVSWNSGALTSGVHTFPAVLQSSGLYSLSSVVTVPSSSLGTQTYICNVNHKPSNTKVDKKVEPKSCDKTHTCPPCPAPDLLGGDSVFLFPPKPKDTLMISRTPEVTCVVVDVSHEDPEVKFNWYVDGVEVHNAKTKPREEQDNSTYRVVSVLTVLHQDWLNGKEYKCKVSNKALPAPIEKTISKAKGQPREPQVYTLPPSRDELTKNQVSLTCLVKGFYPSDIAVEWESNGQPENNYKTTPPVLDSDGSFFLYSKLTVDKSRWQQGNVFSCSVMHEALHNHYTQESLSLSP
light: DIQMTQSPSSLSASVGDRVTITCRASQDISSYLNWYQQKPGKAPKLLIYYTSRLHSGVPSRFSGSGSGTDFTFTISSLQPEDIATYYCQQGNTLPYTFGQGTKVEIK
notes: as for B8
[8]
  Kd: 10 µM

B10: IL6R-BP180/IL6R-L (antibody, human IgG1, name in EU numbering)
heavy: QVQLQESGPGLVKPSETLSLTCAVSGHSISHDHAWSWVRQPPGEGLEWIGFISYSGITNYNPSLQGRVTISRDNSKNTLYLQMNSLRAEDTAVYYCARSLARTTAMDYWGEGTLVTVSSASTKGPSVFPLAPSSKSTSGGTAALGCLVKDYFPEPVTVSWNSGALTSGVHTFPAVLQSSGLYSLSSVVTVPSSSLGTQTYICNVNHKPSNTKVDKKVEPKSCDKTHTCPPCPAPELLGDDSVFLFPPKPKDTLMISRTPEVTCVVVDVSHEDGEVKFNWYVDGVEVHNAKTKPREEQYNSTYRVVSVLTVLHQDWLNGKEYKCKVSNKALPKPIEKTISKAKGQPREPQVYTLPPSRDELTKNQVSLTCLVKGFYPSDIAVEWESNGQPENNYKTTPPVLDSDGSFFLYSKLTVDKSRWQQGNVFSCSVMHEALHNHYTQESLSLSP
light: DIQMTQSPSSLSASVGDRVTITCRASQDISSYLNWYQQKPGKAPKLLIYYTSRLHSGVPSRFSGSGSGTDFTFTISSLQPEDIATYYCQQGNTLPYTFGQGTKVEIK
notes: as for B8
[9]
  KD(IIaR)/KD(IIb): 18.5

B11: IL6R-G1d/IL6R-L (antibody, human IgG1)
heavy: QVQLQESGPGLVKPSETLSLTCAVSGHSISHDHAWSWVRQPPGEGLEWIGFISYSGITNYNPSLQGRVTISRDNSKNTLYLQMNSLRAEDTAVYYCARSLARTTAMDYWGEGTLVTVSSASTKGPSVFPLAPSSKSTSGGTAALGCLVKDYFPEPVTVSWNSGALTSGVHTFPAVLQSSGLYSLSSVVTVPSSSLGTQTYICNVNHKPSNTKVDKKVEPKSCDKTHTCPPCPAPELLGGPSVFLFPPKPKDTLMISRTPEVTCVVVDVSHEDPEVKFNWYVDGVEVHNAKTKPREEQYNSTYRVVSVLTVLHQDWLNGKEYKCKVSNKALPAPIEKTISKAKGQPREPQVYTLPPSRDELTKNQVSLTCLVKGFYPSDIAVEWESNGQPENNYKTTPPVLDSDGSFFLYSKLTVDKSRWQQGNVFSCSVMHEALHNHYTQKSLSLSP
light: DIQMTQSPSSLSASVGDRVTITCRASQDISSYLNWYQQKPGKAPKLLIYYTSRLHSGVPSRFSGSGSGTDFTFTISSLQPEDIATYYCQQGNTLPYTFGQGTKVEIK
notes: Anti-human IL-6 receptor IgG1, G1d constant region; also called IgG1
[8]
  Kd: 26 µM
[7]
  Kd: 10 µM

B12: IgG1-v3 (antibody containing IL6R-G1d_v3 as H chain and IL6R-L as L chain) (antibody)
heavy: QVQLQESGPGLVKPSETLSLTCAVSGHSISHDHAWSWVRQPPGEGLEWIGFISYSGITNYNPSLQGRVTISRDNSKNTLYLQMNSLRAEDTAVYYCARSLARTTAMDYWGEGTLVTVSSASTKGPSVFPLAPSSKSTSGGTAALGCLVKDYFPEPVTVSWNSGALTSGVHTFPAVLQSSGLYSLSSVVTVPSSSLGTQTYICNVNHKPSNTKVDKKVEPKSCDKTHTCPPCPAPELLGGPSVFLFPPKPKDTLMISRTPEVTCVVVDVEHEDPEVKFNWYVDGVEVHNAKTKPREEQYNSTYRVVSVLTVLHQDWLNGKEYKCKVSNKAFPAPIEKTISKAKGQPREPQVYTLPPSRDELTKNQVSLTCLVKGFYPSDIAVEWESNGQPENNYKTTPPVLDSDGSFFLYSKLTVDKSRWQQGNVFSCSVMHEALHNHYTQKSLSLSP
light: DIQMTQSPSSLSASVGDRVTITCRASQDISSYLNWYQQKPGKAPKLLIYYTSRLHSGVPSRFSGSGSGTDFTFTISSLQPEDIATYYCQQGNTLPYTFGQGTKVEIK
notes: IL6R-G1d with S267E/L328F (EU numbering); also called S267E/L328F
[3]
  relative KD (KD of IgG1 / KD of the variant): 1.8 fold
[4]
  relative KD (KD of IgG1 / KD of the variant): 522 fold
[5]
  relative KD (KD of IgG1 / KD of the variant): 408 fold
[6]
  relative KD (KD of IgG1 / KD of the variant): 0.51 fold

B13: IgG1-v2 (antibody containing IL6R-G1d_v2 as H chain and IL6R-L as L chain) (antibody)
heavy: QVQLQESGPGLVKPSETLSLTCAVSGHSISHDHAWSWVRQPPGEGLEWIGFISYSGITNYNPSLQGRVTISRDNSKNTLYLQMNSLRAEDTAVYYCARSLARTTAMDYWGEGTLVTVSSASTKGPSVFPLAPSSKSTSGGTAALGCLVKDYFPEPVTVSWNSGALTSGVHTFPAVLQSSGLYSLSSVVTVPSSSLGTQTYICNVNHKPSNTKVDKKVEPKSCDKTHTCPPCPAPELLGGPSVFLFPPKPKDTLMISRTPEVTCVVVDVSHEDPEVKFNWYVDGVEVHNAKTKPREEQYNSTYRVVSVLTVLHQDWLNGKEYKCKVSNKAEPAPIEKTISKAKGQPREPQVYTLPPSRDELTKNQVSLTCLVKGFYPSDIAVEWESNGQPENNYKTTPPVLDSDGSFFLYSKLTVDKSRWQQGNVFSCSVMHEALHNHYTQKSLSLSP
light: DIQMTQSPSSLSASVGDRVTITCRASQDISSYLNWYQQKPGKAPKLLIYYTSRLHSGVPSRFSGSGSGTDFTFTISSLQPEDIATYYCQQGNTLPYTFGQGTKVEIK
notes: IL6R-G1d with L328E (EU numbering); also called L328E
[3]
  relative KD (KD of IgG1 / KD of the variant): 0.74 fold
[4]
  relative KD (KD of IgG1 / KD of the variant): 0.41 fold
[5]
  relative KD (KD of IgG1 / KD of the variant): 2.3 fold
[6]
  relative KD (KD of IgG1 / KD of the variant): 0.064 fold
